Test results: patent US20210269771A1 (RAMOT AT TEL AVIV UNIVERSITY, published 2021)

B1: 3BNC117 expressed as a membranal B cell receptor (BCR) on engineered B cells (antibody, V domains shown)
VH: QVQLLQSGAAVTKPGASVRVSCEASGYNIRDYFIHWWRQAPGQGLQWVGWINPKTGQPNNPRQFQGRVSLTRHASWDFDTFSFYMDLKALRSDDTAVYFCARQRSDYWDFDVWGSGTQVTVSS
VL: DIQMTQSPSSLSASVGDTVTITCQANGYLNWYQQRRGKAPKLLIYDGSKLERGVPSRFSGRRWGQEYNLTINNLQPEDIATYFCQVYEFVVPGTRLDLK
notes: also called 3BNC117 BCR; ADN171
B2: 3BNC117 antibody, recombinant, expressed in Expi293F cells and purified (antibody, V domains shown)
VH: B1 VH
VL: B1 VL
notes: also called pADN210 (light chain) / pADN211 (heavy chain)

Experiments:
[1] = biological target: T1, gp120 antigen of the YU2.DG HIV strain, His-tagged (HIV-1 strain YU2.DG, UniProt P35961 32-498); test: flow cytometry on engineered primary human and murine B cells
T1 construct: domain: gp120; also called gp120-YU2.DG; gp120-YU2

[2] = biological target: T1, gp120 antigen of the YU2.DG HIV strain, …; test: ELISA (FIG. 15A)
Description: Enzyme Linked Immunosorbent assay. […] Plates were washed with PBST and blocked for two hours with 5% BSA in PBST, washed again and detection antibodies, anti-mouse IgA(abcam) or anti-mouse IgG or anti-mouse IgG1 or anti-mouse IgM (Jackson ImmunoResearch) were provided for an additional incubation of two hours at 2 μg/ml in PBST. Before detection with QuantaBlu (ThermoFisher) according to manufacturer protocols, plates were washed for an additional round. Detection was done in a Synergy M1 Plate reader (Biotek). The concentration of antigen specific antibodies was determined by reference to the dilution factor of the standard curve.

Binder	binding result [1]	binding result [2]
B1	binds	–
B2	–	binds
